Assay results taken from publication PMC8857482.

Target: T1, Csy complex (type I-F surveillance complex: Cas8f, Cas5f, Cas7f, Cas6f + crRNA) (Pseudomonas aeruginosa, UniProt Q02ML9;Q02MM0;Q02MM1;Q02MM2 1-434;1-327;1-342;1-187)
T1 sequence 1: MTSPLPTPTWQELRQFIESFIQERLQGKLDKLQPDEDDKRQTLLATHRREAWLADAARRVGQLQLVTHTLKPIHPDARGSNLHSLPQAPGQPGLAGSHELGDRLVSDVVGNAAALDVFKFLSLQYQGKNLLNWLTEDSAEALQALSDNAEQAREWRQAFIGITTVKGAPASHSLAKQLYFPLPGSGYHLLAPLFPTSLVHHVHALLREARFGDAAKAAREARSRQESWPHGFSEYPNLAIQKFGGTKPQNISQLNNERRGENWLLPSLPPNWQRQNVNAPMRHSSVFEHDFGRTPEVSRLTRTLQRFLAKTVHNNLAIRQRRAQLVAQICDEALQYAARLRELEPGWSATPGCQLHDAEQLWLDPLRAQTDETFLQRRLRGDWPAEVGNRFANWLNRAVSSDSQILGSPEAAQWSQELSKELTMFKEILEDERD
T1 sequence 2: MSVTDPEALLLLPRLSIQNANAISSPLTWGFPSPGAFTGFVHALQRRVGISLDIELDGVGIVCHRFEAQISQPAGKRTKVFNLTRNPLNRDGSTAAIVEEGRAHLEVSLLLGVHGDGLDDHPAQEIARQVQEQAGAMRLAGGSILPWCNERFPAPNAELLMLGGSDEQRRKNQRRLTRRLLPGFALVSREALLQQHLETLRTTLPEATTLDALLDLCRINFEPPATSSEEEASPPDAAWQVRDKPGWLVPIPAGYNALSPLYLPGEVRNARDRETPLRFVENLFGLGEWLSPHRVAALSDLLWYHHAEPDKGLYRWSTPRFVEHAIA
T1 sequence 3: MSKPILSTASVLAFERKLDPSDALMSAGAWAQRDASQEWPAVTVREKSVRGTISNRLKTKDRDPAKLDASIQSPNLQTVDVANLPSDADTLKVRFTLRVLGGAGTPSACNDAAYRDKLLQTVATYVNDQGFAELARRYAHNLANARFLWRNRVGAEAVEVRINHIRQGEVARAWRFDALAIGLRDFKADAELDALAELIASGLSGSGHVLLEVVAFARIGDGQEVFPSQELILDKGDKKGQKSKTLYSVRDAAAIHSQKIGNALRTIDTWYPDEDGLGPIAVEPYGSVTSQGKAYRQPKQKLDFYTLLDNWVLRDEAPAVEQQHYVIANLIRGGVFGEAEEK
T1 sequence 4: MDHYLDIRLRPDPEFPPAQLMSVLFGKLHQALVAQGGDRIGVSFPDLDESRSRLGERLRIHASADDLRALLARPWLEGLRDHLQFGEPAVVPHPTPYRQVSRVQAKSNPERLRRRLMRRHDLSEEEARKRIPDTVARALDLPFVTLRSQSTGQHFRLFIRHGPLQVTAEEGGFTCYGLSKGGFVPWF
Test: EMSA

| Molecule | binding result |
| --- | --- |
| 54 bp target dsDNA (dsDNA) DNA 1: GGAAGCCATCCAGGTAGACGCGGACATCAAGCCCGCCGTGAAGGTGCAGCTGCT DNA 2: AGCAGCTGCACCTTCACGGCGGGCTTGATGTCCGCGTCTACCTGGATGGCTTCC | binds |

Target: Csy complex with Cas8f (N250D) (Pseudomonas aeruginosa) (UniProt Q02ML9)
Test: MST

| Molecule | Kd [nM] |
| --- | --- |
| AcrIF13 (natural protein) | 647 |

Target: type I-F CRISPR-Cas surveillance complex (Csy complex) (Pseudomonas aeruginosa) (UniProt Q02ML9)
Test: MST

| Molecule | Kd [nM] |
| --- | --- |
| AcrIF13 (natural protein) | 1.51 |
| AcrIF13 D21K/E22K (natural protein) | 29.8 |
| AcrIF13 D43K/D44K (natural protein) | 1.85 |
| AcrIF13 D45K/D46K (natural protein) | 6.22 |
| AcrIF13 D63K (natural protein) | 24.6 |
| AcrIF13 D102K (natural protein) | 9.21 |
| AcrIF13 D113K (natural protein) | 67.7 |
| AcrIF13 E10K (natural protein) | 22.3 |
| AcrIF13 E18K (natural protein) | 2.55 |
| AcrIF13 E40K (natural protein) | 5.17 |
| AcrIF13 E50K (natural protein) | 18.1 |
| AcrIF13 E57K (natural protein) | 5.39 |
| AcrIF13 E82K/E83K/D84K (natural protein) | 7.22 |
| AcrIF13 E97K (natural protein) | 14.3 |

Target: Csy complex with Cas7f (K58A/K60A) (Pseudomonas aeruginosa) (UniProt Q02ML9)
Test: MST

| Molecule | Kd [nM] |
| --- | --- |
| AcrIF13 (natural protein) | 34.2 |
